{"source": "patent US20250346890A1", "about": "“LEUKEMIA TREATMENT” (Deutsches Krebsforschungszentrum, priority 2019, published 2025)", "molecules": {"B1": {"name": "RSPO2: human R-spondin 2 protein (SEQ ID NO:1); conditioned medium or recombinant (Peprotech 120-43) (protein, listed as Homo sapiens)", "chain": "MQFRLFSFALIILNCMDYSHCQGNRWRRSKRASYVSNPICKGCLSCSKDNGCSRCQQKLFFFLRREGMRQYGECLHSCPSGYYGHRAPDMNRCARCRIENCDSCFSKDFCTKCKVGFYLHRGRCFDECPDGFAPLEETMECVEGCEVGHWSEWGTCSRNNRTCGFKWGLETRTRQIVKKPVKDTILCPTIAESRRCKMTMRHCPGGKRTPKAKEKRNKKKKRKLIERAQEQHSVFLATDRANQ"}}, "target": "T1, ALK3 (Homo sapiens, UniProt P36894)", "T1 construct": "expressed in transfected cells; host or cells: HEK293T", "T1 sequence (P36894 24-532)": "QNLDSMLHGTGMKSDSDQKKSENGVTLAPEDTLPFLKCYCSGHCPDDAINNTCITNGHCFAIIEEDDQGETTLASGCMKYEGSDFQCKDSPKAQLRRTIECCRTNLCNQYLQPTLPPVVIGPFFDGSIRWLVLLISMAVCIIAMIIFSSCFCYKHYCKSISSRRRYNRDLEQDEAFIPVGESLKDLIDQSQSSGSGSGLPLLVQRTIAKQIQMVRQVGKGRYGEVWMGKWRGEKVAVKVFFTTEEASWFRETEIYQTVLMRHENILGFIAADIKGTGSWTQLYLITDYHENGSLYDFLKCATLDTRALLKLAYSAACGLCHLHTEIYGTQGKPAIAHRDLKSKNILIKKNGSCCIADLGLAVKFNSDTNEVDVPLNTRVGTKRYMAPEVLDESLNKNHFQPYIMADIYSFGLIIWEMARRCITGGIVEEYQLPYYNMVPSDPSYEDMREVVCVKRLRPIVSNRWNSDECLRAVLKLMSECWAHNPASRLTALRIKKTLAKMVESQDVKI", "test": "Cell surface binding assay in HEK293T cells transfected with ALK3", "procedure": "Cell surface binding assays were carried essentially out as previously described (Dosch et al. (1997), Development 124, 2325-2334). In brief, human ALK3-HA and Xenopus tropicalis LGR4 DNA were transfected in HEK293T cells, and incubated with 1.5 U ml^−1 conditioned media for 3 hours on ice. After several washes and crosslinking, cells were treated with 2 mM Levamisole for 20 min to inactivate endogenous AP activities and developed with BM-Purple (Sigma 11442074001). Cells were mounted with Fluoromount G. Images were obtained using LEICA DMIL microscope/Canon DS126311 camera.", "data": [{"molecule": "B1", "values": [{"measurement": "ALK3 binding", "value": "required the TSP1—but not the FU domains"}]}]}
